We go through 1 molecule from patent US20240344124, “Quantum Dot-Enrichment of CRISPR-Associated (Cas) Proteins for Environmental RNA Enrichment” (The Government of the United States of America, as …, published 2024).

The target in the data set is T1, dLwaCas13a (LwaC2c2 R474A/R1046A double mutant); the text does not say whether the double or the quad mutant … (Leptotrichia wadei).
T1 chain: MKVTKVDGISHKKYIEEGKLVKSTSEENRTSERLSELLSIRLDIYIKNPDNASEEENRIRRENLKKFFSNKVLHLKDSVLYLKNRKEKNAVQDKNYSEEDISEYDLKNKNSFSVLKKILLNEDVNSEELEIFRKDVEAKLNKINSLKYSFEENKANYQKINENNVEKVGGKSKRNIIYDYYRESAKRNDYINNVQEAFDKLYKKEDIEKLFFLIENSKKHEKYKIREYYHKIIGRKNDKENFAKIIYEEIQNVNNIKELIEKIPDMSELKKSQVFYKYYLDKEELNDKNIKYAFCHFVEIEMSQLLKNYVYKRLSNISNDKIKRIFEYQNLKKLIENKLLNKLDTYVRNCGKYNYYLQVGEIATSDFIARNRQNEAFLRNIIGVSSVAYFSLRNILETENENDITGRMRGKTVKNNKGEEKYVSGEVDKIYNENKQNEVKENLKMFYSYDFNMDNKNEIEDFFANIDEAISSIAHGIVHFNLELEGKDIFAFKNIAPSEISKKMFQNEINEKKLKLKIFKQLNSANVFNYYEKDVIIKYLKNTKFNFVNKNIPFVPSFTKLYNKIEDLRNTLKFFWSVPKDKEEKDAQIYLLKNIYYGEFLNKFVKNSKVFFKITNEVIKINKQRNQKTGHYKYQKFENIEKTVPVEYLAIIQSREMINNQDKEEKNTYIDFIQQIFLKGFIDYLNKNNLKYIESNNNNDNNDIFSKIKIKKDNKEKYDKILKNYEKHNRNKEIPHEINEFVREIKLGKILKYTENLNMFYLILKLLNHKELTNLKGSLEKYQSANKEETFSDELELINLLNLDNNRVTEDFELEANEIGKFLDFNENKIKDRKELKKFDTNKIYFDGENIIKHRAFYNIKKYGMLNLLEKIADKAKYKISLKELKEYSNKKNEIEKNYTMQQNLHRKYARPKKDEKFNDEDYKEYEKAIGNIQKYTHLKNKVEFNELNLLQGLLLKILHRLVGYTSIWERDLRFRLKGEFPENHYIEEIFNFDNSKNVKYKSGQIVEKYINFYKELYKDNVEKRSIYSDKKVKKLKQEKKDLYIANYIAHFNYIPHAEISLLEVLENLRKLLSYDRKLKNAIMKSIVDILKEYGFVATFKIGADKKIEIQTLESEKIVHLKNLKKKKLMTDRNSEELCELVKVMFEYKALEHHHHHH
As to the kind of experiment: pulldown; […]; 50 mM Tris pH 8, NaCl, 10 mM MgCl2, 37 C; […]. Conditions: tags: polyhistidine tag; GenScript.

B1: cr7 crRNA ; shortened lcrV target RNA (237 nt) (ssRNA ; ssRNA)
RNA 1: GGGGAUUUAGACUACCCCAAAAACGAAGGGGACUAAAACAAUAUCUAUAUUUUUAUCUUUGACUAAC
RNA 2: AUUGAGGAUCUAGAAAAAGUUAGGGUGGAACAACUUACUGGUCAUGGUUCUUCAGUUUUAGAAGAAUUGGUUCAGUUAGUCAAAGAUAAAAAUAUAGAUAUUUCCAUUAAAUAUGAUCCCAGAAAAGAUUCGGAGGUUUUUGCCAAUAGAGUAAUUACUGAUGAUAUCGAAUUGCUCAAGAAAAUCCUAGCUUAUUUUCUACCCGAGGAUGCCAUUCUUAAAGGCGGUCAUUAUGAC
Take B1: the binding result was “binds”.
